Assay results as given in publication PMC7074700.

Molecular target: Helicobacter pylori CbpA, wild type, carboxyl-terminal His-tagged (H. pylori (strain G27))
Test: cross-linking; 5 uM purified protein with 0, 0.0025, 0.005 and 0.01% glutaraldehyde in 1x binding buffer (10 mM Tris-HCl pH 8.0, 50 mM NaCl, 10 mM KCl, 5 mM MgCl2, 0.1 mM DTT, 0.01% NP40), 1 hour at 25 °C; SDS-PAGE, Coomassie staining

stoichiometry N: 2
Substance: Helicobacter pylori CbpA, wild type, carboxyl-terminal His-tagged (natural protein)
